According to publication PMC9908306:

Target: human glyceraldehyde 3-phosphate dehydrogenase (GAPDH) (human) (UniProt P04406)
Test: cryo-EM structure; single particle analysis of GAPDH on EG-grid, 0.5 mg/ml; D2 symmetry applied

Sequence of human glyceraldehyde 3-phosphate dehydrogenase (GAPDH), P04406 1-335 (enzyme; other documents disagree on this pair) (P04406 whole entry): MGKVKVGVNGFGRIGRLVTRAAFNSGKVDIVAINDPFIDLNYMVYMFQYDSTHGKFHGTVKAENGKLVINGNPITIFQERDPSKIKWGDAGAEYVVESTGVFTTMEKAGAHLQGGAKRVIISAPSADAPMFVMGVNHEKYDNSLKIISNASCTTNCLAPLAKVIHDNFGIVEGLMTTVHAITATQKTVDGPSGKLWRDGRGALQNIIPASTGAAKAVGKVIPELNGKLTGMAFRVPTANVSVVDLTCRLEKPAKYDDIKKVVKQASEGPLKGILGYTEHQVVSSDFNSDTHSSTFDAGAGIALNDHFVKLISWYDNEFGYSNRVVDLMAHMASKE

- stoichiometry N: 4
Substance: human glyceraldehyde 3-phosphate dehydrogenase (GAPDH), P04406 1-335 (enzyme; other documents disagree on this pair)
